Results: patent publication US20230416329A1, “A PEPTIDE WITH DISULFIDE BONDS AND INHIBITORY ACTIVITY AGAINST SERINE PROTEASES, DERIVED HYBRID PEPTIDES THEREOF, AND USES THEREOF” (INSTITUTE OF MATERIA MEDICA , CHINESE ACADEMY OF MEDICAL …, priority 2020, published 2023)

How the values were obtained:
[1] = molecular target: bovine trypsin (bovine), P00760; assay: cell-based or functional assay
PCSK9 protein = PCSK9 protein (UniProt Q8NBP7); assay: PCSK9-LDLR in vitro binding assay kit, OD450/540; peptide 50 µM, PCSK9 75 ng/mL; inhibition of PCSK9 binding to LDLR

Sequence of bovine trypsin (bovine), P00760 (P00760 24-246): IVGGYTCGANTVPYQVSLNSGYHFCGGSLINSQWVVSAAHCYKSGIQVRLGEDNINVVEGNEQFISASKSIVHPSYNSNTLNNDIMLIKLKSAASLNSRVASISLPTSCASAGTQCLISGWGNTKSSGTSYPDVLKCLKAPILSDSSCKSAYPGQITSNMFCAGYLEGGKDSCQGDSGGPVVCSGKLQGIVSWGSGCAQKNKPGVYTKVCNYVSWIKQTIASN

Binder	residual trypsin activity at 0.0000098 µM BT1 [1] [%]	residual trypsin activity at 0.000098 µM BT1 [1] [%]	residual trypsin activity at 0.00098 µM BT1 [1] [%]	residual trypsin activity at 0.02439 µM BT1 [1] [%]	residual trypsin activity at 0.0488 µM BT1 [1] [%]	residual trypsin activity at 0.098 µM BT1 [1] [%]	residual trypsin activity at 0.98 µM BT1 [1] [%]	residual trypsin activity at 9.76 µM BT1 [1] [%]	Inhibitory rate (%) (PCSK9 protein)
GRCTKSIPPICFPD (modifications not checked) [BT1]	102	102	101	69.6	24.1	3.3	0	0	
GTNEALDNNCGRATKSIPPICFTVFTS [PCSK9_13]									15.8
